B1: Androgen receptor (Homo sapiens), P10275 (parent)
chain: MEVQLGLGRVYPRPPSKTYRGAFQNLFQSVREVIQNPGPRHPEAASAAPPGASLLLLQQQQQQQQQQQQQQQQQQQQQQQETSPRQQQQQQGEDGSPQAHRRGPTGYLVLDEEQQPSQPQSALECHPERGCVPEPGAAVAASKGLPQQLPAPPDEDDSAAPSTLSLLGPTFPGLSSCSADLKDILSEASTMQLLQQQQQEAVSEGSSSGRAREASGAPTSSKDNYLGGTSTISDNAKELCKAVSVSMGLGVEALEHLSPGEQLRGDCMYAPLLGVPPAVRPTPCAPLAECKGSLLDDSAGKSTEDTAEYSPFKGGYTKGLEGESLGCSGSAAAGSSGTLELPSTLSLYKSGALDEAAAYQSRDYYNFPLALAGPPPPPPPPHPHARIKLENPLDYGSAWAAAAAQCRYGDLASLHGAGAAGPGSGSPSAAASSSWHTLFTAEEGQLYGPCGGGGGGGGGGGGGGGGGGGGGGGEAGAVAPYGYTRPPQGLAGQESDFTAPDVWYPGGMVSRVPYPSPTCVKSEMGPWMDSYSGPYGDMRLETARDHVLPIDYYFPPQKTCLICGDEASGCHYGALTCGSCKVFFKRAAEGKQKYLCASRNDCTIDKFRRKNCPSCRLRKCYEAGMTLGARKLKKLGNLKLQEEGEASSTTSPTEETTQKLTVSHIEGYECQPIFLNVLEAIEPGVVCAGHDNNQPDSFAALLSSLNELGERQLVHVVKWAKALPGFRNLHVDDQMAVIQYSWMGLMVFAMGWRSFTNVNSRMLYFAPDLVFNEYRMHKSRMYSQCVRMRHLSQEFGWLQITPQEFLCMKALLLFSIIPVDGLKNQKFFDELRMNYIKELDRIIACKRKNPTSCSRRFYQLTKLLDSVQPIARELHQFTFDLLIKSHMVSVDFPEMMAEIISVQVPKILSGKVKPIYFHTQ
partner: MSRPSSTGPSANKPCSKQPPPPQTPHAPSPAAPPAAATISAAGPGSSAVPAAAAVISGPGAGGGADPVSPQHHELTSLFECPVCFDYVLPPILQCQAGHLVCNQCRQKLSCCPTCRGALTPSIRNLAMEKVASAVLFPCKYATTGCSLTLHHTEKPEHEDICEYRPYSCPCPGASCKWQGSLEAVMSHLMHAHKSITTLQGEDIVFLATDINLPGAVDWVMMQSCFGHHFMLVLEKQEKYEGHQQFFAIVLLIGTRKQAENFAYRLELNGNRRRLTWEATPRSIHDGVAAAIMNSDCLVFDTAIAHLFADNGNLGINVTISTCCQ

Variants of: B1
Settings: with siah2_mouse Siah2, Q06986

Effect of a mutation on the interaction, decreasing interaction:
Q799E
V716M
R727L
F755L
V731M
T878A
H875Y
L702H

— IntAct's records for PubMed 23518348
